We go through 167 variants from the RNAGym collection of RNA variant scans (doi:10.7554/elife.80360).

B1: HDV Ribozyme (parent)
chain: GGCCGGCAUGGUCCCAGCCUCCUCGCUGGCGCCGGCUGGGCAACAUUCCGAGGGGACCGUCCCCUCGGUAAUGGCGAAUGGGACCCA

In the series the parent is B1. The experiment in a line: self-cleavage, relative activity (ratio to wild type); higher = more cleavage; co-transcriptional.
C7G G31C: the self-cleavage was 0.95.
To C3G C15G belongs 0.266; to G39A A56U, 0.676; to G40A U65A, 0.914.
As for A8C G39C, the self-cleavage is 0.0615.
On to G31C A77G, for which the self-cleavage amounted to 0.306.
In the case of G6C C22A, the self-cleavage turned out to be 0.
A56U G67C: the self-cleavage was determined as 0.904.
On to G28A G55U, for which the self-cleavage was determined as 0.056.
As to C4U A8G, the self-cleavage came out at 0.762.
For G68U G76C, the self-cleavage came out at 1.11.
With C49U G81U, the self-cleavage turned out to be 0.314.
As for C7G C44U, the self-cleavage was found to be 0.0462.
To U27A C64A belongs 0.703; to G67U U69A, 0.801; to G34A C85G, 0.0978.
In the case of G28A A87U, the self-cleavage was determined as 0.0932.
On to U37C U47A, for which the self-cleavage was 0.864.
As to U37A U60G, the self-cleavage was 0.192.
To G29U G38C belongs 0.0386.
To G1U C18U belongs 0.315; to G52U G81A, 0.356.
In the case of G6U U20A, the self-cleavage is 0.0978.
With C36U U46G, the self-cleavage came out at 0.504.
Take U46C C63G: the self-cleavage came to 0.72.
For the variant G28A U65C, the self-cleavage is 0.0415.
For G6C G10C, the self-cleavage is 0.0875.
To G39C G82U belongs 0.0791.
With C33G C58U, the self-cleavage came to 0.147.
With U20A G54A, the self-cleavage came to 0.116.
On to G39U G76C, for which the self-cleavage was determined as 0.724.
To C30U U79G belongs 0.128; to G50A A71U, 0.881.
To G17A C85A belongs 0.727.
For G52A G81C, the self-cleavage was 0.259.
As to U12A G55A, the self-cleavage worked out at 0.415.
As to G34U C49A, the self-cleavage was 0.151.
On to G50A G67A, for which the self-cleavage amounted to 1.17.
Regarding A83G A87G, the self-cleavage was 0.733.
On to C15A C63G, for which the self-cleavage stood at 0.539.
To C33A U65A belongs 0.332; to C36G G50U, 0.101.
In the case of G5A C18U, the self-cleavage is 0.
In the case of C36U A56U, the self-cleavage is 0.845.
With U20A A56G, the self-cleavage was found to be 0.0536.
To U12C G80U belongs 0.18.
In the case of G54A U69A, the self-cleavage was 0.982.
Consider C15G G73C, for which the self-cleavage turned out to be 0.231.
In the case of G6C C66G, the self-cleavage was 0.332.
Regarding C33G A45U, the self-cleavage was determined as 0.185.
To C64A U69G belongs 1.15.
To C22U U60G belongs 0.944; to C32A C62G, 0.0489.
Turning to A16C C22G, the self-cleavage is 0.0426.
As for U60A G76C, the self-cleavage was 0.973.
To G2U C3A belongs 0.0484.
Take G10C A45C: the self-cleavage came to 0.231.
Regarding G5A C84G, the self-cleavage came out at 0.0875.
With G25U U79A, the self-cleavage came to 0.0875.
In the case of C18U G29U, the self-cleavage was found to be 0.0639.
As to C62A C64G, the self-cleavage came to 0.142.
As for C22G C24A, the self-cleavage amounted to 0.0396.
With C26A G50A, the self-cleavage is 0.881.
Regarding U27C A42C, the self-cleavage turned out to be 0.431.
On to C22U C48G, for which the self-cleavage stood at 0.635.
Consider G10A C15A, for which the self-cleavage is 0.208.
C24A C49G: the self-cleavage is 0.787.
For C30G G59C, the self-cleavage came to 0.108.
With G6U U65A, the self-cleavage stood at 0.431.
Regarding G10C A16G, the self-cleavage was found to be 0.453.
To U12A C64U belongs 0.178; to C21U G54C, 0.292; to U37A U72G, 0.302.
Consider C7A A45G, for which the self-cleavage is 0.705.
In the case of U46A A71G, the self-cleavage was determined as 0.895.
Regarding G2A C48U, the self-cleavage is 0.216.
For U72C G74A, the self-cleavage amounted to 0.363.
To A16U C32A belongs 0.177; to C32G G50U, 0.0268.
To A43G C85A belongs 0.44; to G5A G17C, 0.0594.
With C3U G28U, the self-cleavage was 0.0707.
Take A56U A77C: the self-cleavage was determined as 0.341.
As for U9C C33G, the self-cleavage turned out to be 0.249.
To G28C A78G belongs 0.26; to C15A G29A, 0.117.
On to C4G G73C, for which the self-cleavage is 0.0361.
As for C15U G55A, the self-cleavage was determined as 0.889.
For the variant C26A U72C, the self-cleavage is 0.867.
In the case of C13G U65C, the self-cleavage turned out to be 0.095.
On to C48A C84A, for which the self-cleavage was 1.08.
Consider C26A A51G, for which the self-cleavage amounted to 1.11.
To C14A G28C belongs 0.142; to G17A A78U, 0.242; to G1A C62U, 0.0791.
To C57U G73U belongs 0.338.
To A8U C62G belongs 0.287; to G1C, 0.179; to G1A, 0.143.
Turning to G25C C30U, the self-cleavage came out at 0.0326.
Take C14A U69C: the self-cleavage came out at 0.95.
As to C26A A87U, the self-cleavage is 1.21.
In the case of G54C C61G, the self-cleavage is 1.16.
On to U9A G28A, for which the self-cleavage turned out to be 0.138.
Consider A43C G55C, for which the self-cleavage is 0.312.
As for C33A G81A, the self-cleavage turned out to be 0.0339.
As for C48A U69A, the self-cleavage was found to be 0.814.
On to C48A U69C, for which the self-cleavage came out at 0.892.
On to U47A C49A, for which the self-cleavage came out at 0.886.
To G55U U79G belongs 0.591; to A16G C84U, 0.525.
For the variant C18A A87U, the self-cleavage worked out at 0.126.
Consider U12C C41A, for which the self-cleavage was determined as 0.388.
Take C41U A78G: the self-cleavage amounted to 0.724.
Regarding C41G C58U, the self-cleavage is 0.746.
C61G A87C: the self-cleavage amounted to 0.983.
For A77C, the self-cleavage was 0.377.
To C21G G55U belongs 0.0755.
To G25U C85A belongs 0.125; to G38A C64U, 0.225.
To U20A U47G belongs 0.
As to C30A A56U, the self-cleavage came out at 0.727.
Turning to G17U C63U, the self-cleavage is 0.47.
To A78U C84A belongs 0.185.
For the variant A51U G74U, the self-cleavage was determined as 0.369.
Take C64A C85G: the self-cleavage was found to be 0.594.
Take G53U A83G: the self-cleavage amounted to 0.739.
To G34A U46C belongs 0.215.
With A8G C36U, the self-cleavage amounted to 0.727.
On to A70G A78U, for which the self-cleavage was 0.151.
As for A16G A70C, the self-cleavage worked out at 1.04.
To G54C C64A belongs 0.574; to C7U U47C, 0.482.
With C3U A51U, the self-cleavage came to 0.992.
In the case of G39A C63U, the self-cleavage came to 0.503.
To C22A U37C belongs 0.0723; to C30G C63U, 0.0231; to C18A C48G, 0.102.
Regarding U46A G55U, the self-cleavage is 0.85.
Turning to C19A G38C, the self-cleavage came out at 0.0248.
On to C30U A42G, for which the self-cleavage was determined as 0.156.
In the case of C22U C57G, the self-cleavage was 0.914.
With U23C A51U, the self-cleavage is 1.15.
To U20C G39C belongs 0.185.
With C30G C44A, the self-cleavage was 0.0875.
With C36G C41A, the self-cleavage stood at 0.248.
For C61U U65C, the self-cleavage was 0.914.
With C36G G54A, the self-cleavage amounted to 0.0831.
With G17A G52C, the self-cleavage is 0.923.
Consider C13A A83U, for which the self-cleavage came to 0.142.
As for U27C U65C, the self-cleavage came out at 0.798.
To G2U C21U belongs 0.0542; to C48A A78U, 0.242.
Turning to U27G G38U, the self-cleavage came out at 0.133.
On to C64G G76U, for which the self-cleavage is 1.05.
To G52U A87C belongs 0.95; to C22G G68C, 0.0354; to C15U C49U, 0.997.
On to G35C A56C, for which the self-cleavage amounted to 0.302.
On to C24U U72G, for which the self-cleavage stood at 0.323.
Regarding U47G A70U, the self-cleavage amounted to 1.4.
Take C18U C75A: the self-cleavage was 0.366.
Regarding U23A G73U, the self-cleavage came out at 0.464.
C24A U72A: the self-cleavage is 0.271.
As to C18A A56G, the self-cleavage was found to be 0.162.
To G5U A51C belongs 0.277; to C48A, 0.989.
